Experimental findings from the nanobody polyreactivity screen of Harvey et al. (2022) are described below.

A short description of the series: yeast display, Sf9 membrane polyspecificity reagent, FACS + sequencing; frameworks hold sequencing errors. Put shortly:
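Synthetic nanobody libraries on Saccharomyces cerevisiae BJ5465 were galactose-induced for 36–48 hours, stained 1 hour at 4 °C with 10% biotinylated, detergent-solubilized Sf9 membrane reagent and enriched on streptavidin microbeads. FACS then separated cells into low and high (top ~1%) gates by anti-HA (expression) and streptavidin (reagent binding) fluorescence. Genes were colony-PCR amplified, MiSeq 2 × 250 sequenced and CDR-length filtered. A clone's polyreactivity label is that of its gate of origin.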
In the case of “QVQLVESGGGLVQAGGSLRLSCAASGSIIDVYAMGWYRQAPGKERELVAAISTSGGSTFYADSVKGRFTISRDHAKNTVYLQMNSLKPEDTAVYYCNAAKYPDQWYDEYNYWGQGTQVTVSS”, the “polyreactivity (PSR sort gate)” value was “low polyreactivity”.

Take “QVQLVESGGGLVQAGGSLRLSCAASGSIIFRYNMGWSRQAPGKERELVAAITTGGSTNYADSVKGRFTISRDNAKNTVSLQMNSLKPEDTAVYYCNRDNRRWTRAAVRVDFYYWGQGTQVTVSS”: the “polyreactivity (PSR sort gate)” value is on record as “high polyreactivity”.

Regarding “QVQLVESGGGLVQAGGSLRLSCAASGSIIGFNGMGWYRQAPGKERELVSAISSTGGSTYYADSVKGRFTISRDNAKNTVYLQMNSLKPEDTAVYICNTDYSKTIGDGYAGFDYWGQGTQGTVSS”, the “polyreactivity (PSR sort gate)” value is listed as “low polyreactivity”.

“QVQLVESGGGLVQAGGSLRLSCAASGSIIGRNVMGWYRQAPGKERELVAVITGSGGGTYYADSVKGRFTISRDNAKNTVYLQMNSLKPEDTAVYYCAARKRGTFTYDYWGQGTQVTVSS”: the “polyreactivity (PSR sort gate)” value is given as “high polyreactivity”.

As for “QVQLVESGGGLVQAGGSLRLSCAASGSIIGRYTMGWYRQAPGKERELVAAISRSGGSTYYADSVKGRFTISRDNSHNTVYLQMNSPKPEDTAVYYCAKRTYTPRVERLYSSYDYWGQGTQVTVSS”, the “polyreactivity (PSR sort gate)” value was “high polyreactivity”.

“QVQLVESGGGLVQAGGSLRLSCAASGSIIGSYVMGWYRQAPGKERELVATITNGGSTYYADSVKGRFTISRDNAKNTVYLQMNSLKPEDTAVYYCAADGRGDLYVWPGIGGDYWGQGTQVTVSS”: the “polyreactivity (PSR sort gate)” value is listed as “low polyreactivity”.

On to “QVQLVESGGGLVQAGGSLRLSCAASGSIIGVNAMGWYRQAPGKERELVAAISSTGGSTYYADSVKGRFTISRDNAKNTVYLQMNSLKPEDTAVYYCAAVLIDPDSNLETGGIFDYWGQGTQVTVSS”, for which the “polyreactivity (PSR sort gate)” value was “low polyreactivity”.

As to “QVQLVESGGGLVQAGGSLRLSCAASGSIIHNYDMGWYRPAPGTETEFVAAINWSGGNTHYADSVKGRFTISRDNAKNTFYLQMNSLKPEDTAVYYCAADSGFDTAPYDYWGQGTQVTVSS”, the “polyreactivity (PSR sort gate)” value is reported as “low polyreactivity”.

In the case of “QVQLVESGGGLVQAGGSLRLSCAASGSIIHVNAMGCYRQAPGKERELVAGISDGGSTYYADSVKGRFTISRDNAKYTVYLQMNSLKPEDTAVYYCAAESEQWYSYVLSYDWEYDYWGQGTQVTVSS”, the “polyreactivity (PSR sort gate)” value was “low polyreactivity”.

As for “QVQLVESGGGLVQAGGSLRLSCAASGSIIIGNAMGWYRPAPGKERELVAVINGSDGTTYYADSVKGRFTISRDTAKNTVYLQMNSLKPEDTAVYYCNADFIDPSVYDYNYWGQGTQVTVSS”, the “polyreactivity (PSR sort gate)” value is recorded as “low polyreactivity”.

“QVQLVESGGGLVQAGGSLRLSCAASGSIIKPYDMGWYIQAPGKERELVAAIRSSGGRTNYADSVKGRFTISRDNAKNTVYLQMNSLKPEDTAVYYCAAGYVSYWYYRYDYWGQGTQVTVSS”: the “polyreactivity (PSR sort gate)” value is “high polyreactivity”.

With “QVQLVESGGGLVQAGGSLRLSCAASGSIILYYAIGWYRQAPGIERELVAGIRRGGRTNYADSVKGRFTISRDNAKNTVYLQMNSLKPEDTAVYYCAKGGYWGQGSQVTVSS”, the “polyreactivity (PSR sort gate)” value is “high polyreactivity”.

Consider “QVQLVESGGGLVQAGGSLRLSCAASGSIIPGYTMGWYRQAPGKERELVAAITSSGGSTYYADSVKGRFTISRDNAKNTVYLQMNSLKPEDTAVYYCNAPFWGYRTSFSYPVVQRFDYWGQGTQVPVSS”, for which the “polyreactivity (PSR sort gate)” value is recorded as “low polyreactivity”.

With “QVQLVESGGGLVQAGGSLRLSCAASGSIIPRNAMGWYRQAPGKEMELVAAIRKSGGSTYYADSVKGRFTFCRDIAKNTVYLQMNSLKPEDTAVYYCAKPYYVPSWLSPIYNYWGQGTQVTESS”, the “polyreactivity (PSR sort gate)” value is recorded as “low polyreactivity”.

For the sequence “QVQLVESGGGLVQAGGSLRLSCAASGSIISDYALGWYRPAPGKERELVAGISSGGGTTYADSVKGRFTISRDNAKNTVYLQMNSLKPEDTAVYYCNKQDQPVGRSGYPYGYDYWGQGTQVTVSS”, the “polyreactivity (PSR sort gate)” value is “low polyreactivity”.

For “QVQLVESGGGLVQAGGSLRLSCAASGSIISNYVKGWYRQAPGKERELVAAITRRGGRTYYADSVKGRFTISRDNAKNTVYLQMNSLKPEDTAVYYCAAQTISYSYPIIRYDYWGQGTQVTVSS”, the “polyreactivity (PSR sort gate)” value is “low polyreactivity”.

“QVQLVESGGGLVQAGGSLRLSCAASGSIISRNAMGWYRQAPGKEREFVAAITRSGGSTSYADSVKGRFTISRDNAKNTVYLQMNSLKPEDTAVYYCSASFARSATAYLFDYWGQGTQVTVSS”: the “polyreactivity (PSR sort gate)” value is reported as “high polyreactivity”.

Consider “QVQLVESGGGLVQAGGSLRLSCAASGSIISYYAMGWYRQAPGKERELVATITSGGITYYADSVKGRFTISRDNAKNTVYLQMNSLKPEDTAVYYCNARYPHGYSSYYRFGYWGQGTQVTVSS”, for which the “polyreactivity (PSR sort gate)” value is “high polyreactivity”.

Consider “QVQLVESGGGLVQAGGSLRLSCAASGSIITYYAMGWYRQAPGKERELVAAISSGGSTYYADSVKGRFTISRDNAKSTVYLQMNRLKPEDSAVYYCNADLLDYWSFILFDYWGQGSQVTVSS”, for which the “polyreactivity (PSR sort gate)” value is given as “high polyreactivity”.

With “QVQLVESGGGLVQAGGSLRLSCAASGSIIVGYAMGWYRQAPGKEREMVALISSDCDTYYADSVKGRFTISRDNAKNTVYLQMNSLKAEDTAVYYCNADLYGGGDKSVISGLNGEYEYWGQGTQVTVSS”, the “polyreactivity (PSR sort gate)” value is reported as “low polyreactivity”.

For “QVQLVESGGGLVQAGGSLRLSCAASGSIIYKYAMGWYRQAPGKERELVAAINSGGRTYYADSVKGRFTISRDNAKNTVYLQMNSLKPEDTAVYYCNAGTYYPGRYDYWGQGTQVTVSS”, the “polyreactivity (PSR sort gate)” value was “low polyreactivity”.

For “QVQLVESGGGLVQAGGSLRLSCAASGSIIYPYAMGWYRQAPGKERELVASINWRTGSTYYADSVKGRFTISRDNAKNTVYLQMNSLKPEDTAVYYCAARLDYYTGFDYWGQGTQVTVSS”, the “polyreactivity (PSR sort gate)” value is “low polyreactivity”.

“QVQLVESGGGLVQAGGSLRLSCAASGSIIYRNVMGWYRQAPGKERELVAAISSNGGRTYYADSVKGRFTISRDNAKNTVYLQMNSLKPEDTAVYYCAADTYPGTYYWGQGTQVTVSS”: the “polyreactivity (PSR sort gate)” value was “high polyreactivity”.

Consider “QVQLVESGGGLVQAGGSLRLSCAASGSIIYRYAMGWYRQARGKERELVAAISTTGGRTYYADSVKGRFTISRDNAKNTVYLQMNSLKPEDTAVYYCNTYGSGTHSTGYDYWGQGTQVTVSS”, for which the “polyreactivity (PSR sort gate)” value is reported as “low polyreactivity”.

In the case of “QVQLVESGGGLVQAGGSLRLSCAASGSIIYTNAMGWYRQAPGKERELVAAITGTTTTNYADSVKGRFTISRDNAKNTVYLQKTSLKPEDTAVYYCNADYDRSRVYYSVELYDYWGQGTQVTVSS”, the “polyreactivity (PSR sort gate)” value is listed as “low polyreactivity”.

With “QVQLVESGGGLVQAGGSLRLSCAASGSILAGNTMVSYRQAPGKERELVATISKRGGSTYYADSVKGRFTISRDNAKNTVYLQMNSLKPEDTAVYYCAAALRAKHYYWGQGTQVTVSS”, the “polyreactivity (PSR sort gate)” value is on record as “high polyreactivity”.

Regarding “QVQLVESGGGLVQAGGSLRLSCAASGSILAGYAMGWYRQAPGKERELVAAISDSGGNTYYADSVKGRFTISRDTAKNTVYLQMNSLKPEDTAVYYCAADLGYGPLRELEYWGQGTQVNVSS”, the “polyreactivity (PSR sort gate)” value was “low polyreactivity”.

On to “QVQLVESGGGLVQAGGSLRLSCAASGSILAHYAMGWYRQAPGKERELVAGISSGGSTNYADSVKGRFTISRDNAKNTVYLQMNSLKPEDTAVYYCNADQDFLFIGYLFDYWGQGTQVTVSS”, for which the “polyreactivity (PSR sort gate)” value was “low polyreactivity”.

With “QVQLVESGGGLVQAGGSLRLSCAASGSILARNAMGWYRQAPGKERELVAAISNSGSTNYADSVKGRFTISRDNAKNTVYLQMNSLKPEDPAGYYCAKDADHGWFEYDYWGQGTQVTVSS”, the “polyreactivity (PSR sort gate)” value is “low polyreactivity”.

“QVQLVESGGGLVQAGGSLRLSCAASGSILDHYAMGWYRQAPGKEREFVAAISIRGGSTYYADSVKGRFTISRDNAKNTVYLQMNSLKPEDTAVYYCNALSNYVYRRNDYWGQGTQVTVSS”: the “polyreactivity (PSR sort gate)” value was “low polyreactivity”.

Regarding “QVQLVESGGGLVQAGGSLRLSCAASGSILDPYVMGWYRQSPGKEWELVAAITQSGGSTYYADSVKGRFTISRDNAKNTVYLQMNSLKPEDTAVYYCATTRPIRRTSARYNYWGQGTQVTVSS”, the “polyreactivity (PSR sort gate)” value was “low polyreactivity”.

“QVQLVESGGGLVQAGGSLRLSCAASGSILDTNAMGWYRQAPGKERELVARIDIDGSTNYADSVKGRFTISRDNAKNTVYLQMNSLKPEDTAVYYCNKDHSSYGASGYDYWGQGTQVTVSS”: the “polyreactivity (PSR sort gate)” value was “low polyreactivity”.

“QVQLVESGGGLVQAGGSLRLSCAASGSILEIYAMGWYRQAPGKEREFVASISWDVSSTYYADSVKGRFTISRDNAKNTVYLQMNSLKPEDTAVYYCATSLVWGLYDWYYDLSAAFDYWGQGTQVTVSS”: the “polyreactivity (PSR sort gate)” value is on record as “low polyreactivity”.

As to “QVQLVESGGGLVQAGGSLRLSCAASGSILESIVMGWYRQAPGKERELVASISSSGDSSYADSVKGRFTISRDNAKNTVYLQMNSLKPEDTAVYYCAADRWYWTYALYYWGQGTQVTVSS”, the “polyreactivity (PSR sort gate)” value is “low polyreactivity”.

In the case of “QVQLVESGGGLVQAGGSLRLSCAASGSILESNVMGWYRQAPGKERELVASISSSGDSTYADSVKGRFTISRDNAKNTVYLQMNSLKPEDTAVYYCAADAPGADFDYWGQGTQVTVSS”, the “polyreactivity (PSR sort gate)” value is “low polyreactivity”.

On to “QVQLVESGGGLVQAGGSLRLSCAASGSILFNNAMGWYRQAPGKERELVAAIRSNGGNTYYADSVKGRFTISCDNAKNTVYLQMNSLKPEDTAVYYCAAEKTLYGGGGWTRWFHYTYGYWGQGTQVTVSS”, for which the “polyreactivity (PSR sort gate)” value is “high polyreactivity”.

Consider “QVQLVESGGGLVQAGGSLRLSCAASGSILFSYAMGWYIQAPGKEREFVAAITFSGGRTYYADSVKGRFTISRDNAKNTVYLQMNSLKPEDTAVYYCAASYLLIYTQGYRAEYEYWGQGTQVTVSS”, for which the “polyreactivity (PSR sort gate)” value is “low polyreactivity”.

On to “QVQLVESGGGLVQAGGSLRLSCAASGSILFSYAMGWYRQAPGKERELVAAINRGDGNTYADSVKGRFTISRDNAKNTVYLQMNSLKPEDTAVYYCNADLFPGYVSYPEYDYWGQGTQVTVSS”, for which the “polyreactivity (PSR sort gate)” value was “low polyreactivity”.

“QVQLVESGGGLVQAGGSLRLSCAASGSILGGNAMGWYRQAPGKERELVAANTFSGGGTYYADSVKGRFTISRDNAKNTVYLQMKSLKPEDTAVYYCNADYKSTVFRYSGSRNYWGQGTQVTVSS”: the “polyreactivity (PSR sort gate)” value is “low polyreactivity”.

Take “QVQLVESGGGLVQAGGSLRLSCAASGSILGHYAMGWYRQAPGTERELVAAISWSGGSTYYADSVKGRFTISRDNAKNTVYLQMNSLKPEDTAVYYCNAAAILYTSDGSLYWYDYWGQGTQVTVSS”: the “polyreactivity (PSR sort gate)” value is given as “low polyreactivity”.
